Results: PMC4683529, “Cancer associated missense mutations in BAP1 catalytic domain induce amyloidogenic aggregation: A new insight in enzymatic inactivation” (Scientific Reports, 2015)

Molecular target: the molecule itself
Test: ultracentrifugation of heated protein and dot blot of the pellet with A11 and OC antibodies; 7 uM protein heated at 37 °C for 1 h, then 14 h at 25 °C; 1,00,000 x g for 60 min (2 h for OC)

B1: BAP1 catalytic domain (1–240), wild type (domain or fragment, human, UniProt Q92560 1-240, looked up)
chain: MNKGWLELESDPGLFTLLVEDFGVKGVQVEEIYDLQSKCQGPVYGFIFLFKWIEERRSRRKVSTLVDDTSVIDDDIVNNMFFAHQLIPNSCATHALLSVLLNCSSVDLGPTLSRMKDFTKGFSPESKGYAIGNAPELAKAHNSHARPEPRHLPEKQNGLSAVRTMEAFHFVSYVPITGRLFELDGLKVYPIDHGPWGEDEEWTDKARRVIMERIGLATAGEPYHDIRFNLMAVVPDRRIK
notes: BRCA1 associated protein 1 (BAP1), human, N-terminal catalytic (UCH) domain, residues 1-240, subcloned into pGEX-6P-1 from Flag-HA-BAP1; also called WT 240; BAP1 (1–240); source: E. coli Rosetta 2, purified (standard GST purification protocol)
Q: Does B1 bind?
A: Result: binds

B2: BAP1 catalytic domain (1–240) F81V (domain or fragment, human, UniProt Q92560 1-240, looked up)
chain: MNKGWLELESDPGLFTLLVEDFGVKGVQVEEIYDLQSKCQGPVYGFIFLFKWIEERRSRRKVSTLVDDTSVIDDDIVNNMVFAHQLIPNSCATHALLSVLLNCSSVDLGPTLSRMKDFTKGFSPESKGYAIGNAPELAKAHNSHARPEPRHLPEKQNGLSAVRTMEAFHFVSYVPITGRLFELDGLKVYPIDHGPWGEDEEWTDKARRVIMERIGLATAGEPYHDIRFNLMAVVPDRRIK
notes: BAP1, human, catalytic domain residues 1-240 with the cancer-associated mutation F81V; source: E. coli Rosetta 2, purified (standard GST purification protocol)
Q: Does B2 bind?
A: Result: binds
